Results published in paper doi:10.1101/2025.05.22.655646 (bioRxiv, 2025).

B1: G001_gp1_V10_VRC01c_2021-0087 (antibody, V domains shown)
VH: QVQLVQSGAEVKKPGASVKVSCKASGYTFTGNYIHWVRQAPGQGLEWVGWLNPNSGGTNYAQQFQGRVTMTRDTSISTAYMELNRLRSDDTAVFYCARGLWQWEFRYWGQGTLVTVSS
VL: DIVLTQSPGTLSLSPGERATLSCRASQSVSSSNLAWYQQKPGQAPRLLIYGASSRATGIPDRFSGSGSGTDFTLTISRLEPEDCAVYYCQQYEGFGGGTKVEIK
notes: also called G001-0087
B2: G001_gp1_V10_VRC01c_179 (antibody, V domains shown)
VH: QVQLVQSGADVKKPGASVKVSCKASGYTFTDYYMHWVRQAPGQGLEWMGWINPNSGGTNYAQKFQDRVTMTRDTSVSTAYMEVSGLRSDDTAVYYCARIKLCNGGSCNWSLGYWGQGSLVTVSS
VL: DIQMTQSPSSLSASVGDRVTITCQASQDISNYLNWYQQKPGKAPKLLIYGASNLETGVPSRFSGSGSGTDFTFTISSLQPEDIATYYCQQYEFFGPGTKVDIK
notes: also called G001-179
B3: G001_LD_07A_VRC01c_59 (antibody, V domains shown)
VH: QVQLVQSGAEVKKPGTSVKVSCKASEYTFTGYYVHWVRQAPGQGLEWMGWINPNSGGTNYAQKFQGWVTMTRDTSISTAYMELSRLKSDDTAVYYCARSDYISSWYFGYWGQGTLVTVSS
VL: EIVMTQSPATLSVSPGERATLSCRASQSVSSNLAWYQQKPGQAPRLLIYGTSTRATGIPARFSGSGSGTEFTLTISSLQSEDFAVYYCQQYETFGQGTKVEIK
notes: also called G001-59
B4: G001_LD_07A_VRC01c_58 (antibody, V domains shown)
VH: QVQLVQSGAEVRKPGASVKVSCKASGYTFTDYYIHWVRQAPGQGLEWMGWINPNSGGTNYAQKFQGWVTMTRDTSISTAHMELRRLRSDDRAVYYCARGVVHSGFEFGYWGQGTLVTVSS
VL: DIQMTQSPSTLSASVGDRVTITCRASQSISNWLAWYQQKPGKAPKLLIYKASSLESGVPSRFSGSGSGTEFTLTISSLQPDDFATYYCQQYETFGQGTKVEIK
notes: also called G001-58

Target: T1, eOD-GT8 (Human immunodeficiency virus 1, …)
T1 construct: also called engineered outer domain germline-targeting version 8; eOD-GT8 monomer
Experiment: SPR; monoclonal IgGs and eOD-GT8; as previously described (ref. 19)
Details: both partners purified

B1 and B2 are within 1.5-fold of each other in Kd: 0.15 nM for the first, 0.13 nM for the second.

First: B3
Second: B4
The Kd of the first is 4-fold higher: 1.76 nM for the first, 0.437 nM for the second.
